Experimental findings from US20220204643A1 (published 2022) are described below.

For assay [1], the target named is T1, neural retina leucine zipper, transcript variant X4 (human, UniProt P54845 1-237).
T1 construct: also called NRL

For assay [2], the target named is T2, Egf like and emi domain containing 1, pseudogene (human, UniProt Q0D2K5 1-195).
T2 construct: on protein array; also called EGFEM1P
T2 sequence: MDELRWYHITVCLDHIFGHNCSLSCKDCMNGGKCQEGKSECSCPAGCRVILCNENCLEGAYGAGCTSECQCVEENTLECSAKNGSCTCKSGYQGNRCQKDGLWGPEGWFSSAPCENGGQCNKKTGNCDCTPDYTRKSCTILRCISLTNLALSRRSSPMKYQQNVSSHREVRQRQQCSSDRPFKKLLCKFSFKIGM
Description: protein array.

In assay [3] the target is T3, BCL2 associated athanogene 2 (human, UniProt O95816 2-211).
T3 construct: also called BAG2

Assay [4] addresses T4, HSPA (Hsp70) binding protein 1, transcript variant 2 (human, UniProt Q9NZL4 1-359).
T4 construct: also called HSPBP1
T4 sequence: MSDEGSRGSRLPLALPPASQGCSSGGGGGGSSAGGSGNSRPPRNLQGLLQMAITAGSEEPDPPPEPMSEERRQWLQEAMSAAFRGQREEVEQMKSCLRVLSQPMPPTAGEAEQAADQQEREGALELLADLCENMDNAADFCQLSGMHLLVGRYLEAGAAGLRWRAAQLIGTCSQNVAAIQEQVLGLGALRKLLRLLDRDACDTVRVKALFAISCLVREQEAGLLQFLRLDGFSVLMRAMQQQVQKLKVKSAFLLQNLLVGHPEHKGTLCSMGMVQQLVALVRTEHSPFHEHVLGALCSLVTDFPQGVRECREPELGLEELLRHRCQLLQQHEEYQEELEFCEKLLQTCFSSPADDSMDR

The target in assay [5] is T5, heat shock protein family A (Hsp70) member 2 (human, UniProt P54652 1-639).
T5 construct: also called HSPA2

The target of assay [6] is T6, calcium and integrin binding 1, transcript variant b (human, UniProt Q99828 2-191).
T6 construct: also called CIB1
T6 sequence: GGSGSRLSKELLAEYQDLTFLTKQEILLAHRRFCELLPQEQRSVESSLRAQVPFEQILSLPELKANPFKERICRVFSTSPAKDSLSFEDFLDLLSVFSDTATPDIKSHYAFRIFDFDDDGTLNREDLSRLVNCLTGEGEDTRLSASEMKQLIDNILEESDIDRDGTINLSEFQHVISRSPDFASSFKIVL

Assay [7] has as its target T7, GRB10 interacting GYF protein 1, transcript variant X10 (human, UniProt O75420 1-1035).
T7 construct: also called GIGYF1
T7 sequence: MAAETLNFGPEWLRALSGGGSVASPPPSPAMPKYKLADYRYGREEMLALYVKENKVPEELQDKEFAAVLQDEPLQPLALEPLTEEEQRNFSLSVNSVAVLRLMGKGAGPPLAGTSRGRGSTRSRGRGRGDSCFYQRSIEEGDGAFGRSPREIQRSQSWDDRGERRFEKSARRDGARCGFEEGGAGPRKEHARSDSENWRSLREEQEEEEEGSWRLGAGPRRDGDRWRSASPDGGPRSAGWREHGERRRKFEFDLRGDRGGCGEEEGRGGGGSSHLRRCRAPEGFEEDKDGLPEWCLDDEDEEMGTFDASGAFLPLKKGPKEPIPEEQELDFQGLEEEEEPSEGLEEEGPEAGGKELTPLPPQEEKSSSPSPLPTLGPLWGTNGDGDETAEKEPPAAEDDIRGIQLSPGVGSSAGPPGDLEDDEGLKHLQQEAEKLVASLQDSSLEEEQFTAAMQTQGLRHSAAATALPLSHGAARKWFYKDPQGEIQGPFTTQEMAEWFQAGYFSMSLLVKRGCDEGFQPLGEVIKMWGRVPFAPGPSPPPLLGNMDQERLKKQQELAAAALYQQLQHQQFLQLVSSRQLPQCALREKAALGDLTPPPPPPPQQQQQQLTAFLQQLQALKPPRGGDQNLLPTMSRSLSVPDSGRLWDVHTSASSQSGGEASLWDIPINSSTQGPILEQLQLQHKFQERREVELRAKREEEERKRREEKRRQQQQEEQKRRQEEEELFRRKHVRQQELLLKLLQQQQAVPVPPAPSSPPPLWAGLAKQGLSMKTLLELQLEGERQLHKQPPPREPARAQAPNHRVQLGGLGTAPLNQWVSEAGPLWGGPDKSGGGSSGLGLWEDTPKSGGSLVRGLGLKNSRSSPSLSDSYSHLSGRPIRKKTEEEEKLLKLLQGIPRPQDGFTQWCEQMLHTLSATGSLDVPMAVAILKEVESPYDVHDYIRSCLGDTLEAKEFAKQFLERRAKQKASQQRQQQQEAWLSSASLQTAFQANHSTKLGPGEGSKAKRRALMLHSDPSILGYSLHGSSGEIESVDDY

Assay [8] deals with T8, Ankyrin repeat domain 20 family member a5, pseudogene (human, UniProt A0PJZ0 1-165).
T8 construct: also called ANKRD20A5P

Assay [9] concerns the target T9, Kirre like nephrin family adhesion molecule 1 (human, UniProt Q96J84 17-757, limits assumed).
T9 sequence: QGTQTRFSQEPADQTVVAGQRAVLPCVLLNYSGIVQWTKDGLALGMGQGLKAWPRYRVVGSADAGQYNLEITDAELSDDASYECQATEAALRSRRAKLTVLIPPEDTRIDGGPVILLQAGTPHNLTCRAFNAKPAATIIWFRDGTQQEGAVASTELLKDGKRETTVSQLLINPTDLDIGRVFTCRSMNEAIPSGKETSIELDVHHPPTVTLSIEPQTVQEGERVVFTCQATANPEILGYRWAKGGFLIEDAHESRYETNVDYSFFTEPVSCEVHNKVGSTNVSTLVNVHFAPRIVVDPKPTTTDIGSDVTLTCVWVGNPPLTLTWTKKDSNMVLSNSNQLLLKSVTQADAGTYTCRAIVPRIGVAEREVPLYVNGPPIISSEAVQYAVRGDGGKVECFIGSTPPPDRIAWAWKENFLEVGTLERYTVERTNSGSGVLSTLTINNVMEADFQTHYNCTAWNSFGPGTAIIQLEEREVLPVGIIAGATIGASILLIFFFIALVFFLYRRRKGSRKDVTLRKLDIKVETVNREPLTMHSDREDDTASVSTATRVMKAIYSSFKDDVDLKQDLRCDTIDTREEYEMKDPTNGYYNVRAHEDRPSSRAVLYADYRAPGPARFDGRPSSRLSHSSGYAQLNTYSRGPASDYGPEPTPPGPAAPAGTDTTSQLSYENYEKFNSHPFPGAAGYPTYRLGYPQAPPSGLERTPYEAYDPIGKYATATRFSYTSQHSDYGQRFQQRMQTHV

For assay [10], the target named is T10, coiled-coil domain containing 74B, transcript variant 2 (human, UniProt Q96LY2 1-380).
T10 construct: also called CCDC74B

Assay [11] deals with T11, killer cell lectin like receptor C1, transcript variant 3 (human, UniProt P26715 1-233).
T11 construct: also called KLRC1

Assay [12] has as its target T12, C-X-C motif chemokine receptor 4, transcript variant 2 (human, UniProt P61073 1-352).
T12 construct: also called CXCR4

Assay [13] has as its target T13, Long intergenic non-protein coding rna 242 (human, UniProt Q5T6M2 1-205).
T13 construct: also called LINC00242
T13 chain: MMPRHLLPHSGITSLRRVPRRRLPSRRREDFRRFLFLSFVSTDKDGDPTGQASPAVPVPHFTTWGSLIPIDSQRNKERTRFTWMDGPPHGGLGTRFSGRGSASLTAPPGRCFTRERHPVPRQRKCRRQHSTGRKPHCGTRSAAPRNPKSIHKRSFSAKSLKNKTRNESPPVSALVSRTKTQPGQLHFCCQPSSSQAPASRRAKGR

T3 sequence (O95816 2-211 limits assumed): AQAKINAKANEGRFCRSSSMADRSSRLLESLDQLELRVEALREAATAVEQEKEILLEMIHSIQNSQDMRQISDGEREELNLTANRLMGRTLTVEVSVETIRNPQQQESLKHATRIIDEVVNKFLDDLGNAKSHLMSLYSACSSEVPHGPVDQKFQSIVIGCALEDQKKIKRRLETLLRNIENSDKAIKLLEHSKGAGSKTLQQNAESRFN
T11 sequence (P26715 other isoform, or with tags, fused parts or gaps mutant limits assumed): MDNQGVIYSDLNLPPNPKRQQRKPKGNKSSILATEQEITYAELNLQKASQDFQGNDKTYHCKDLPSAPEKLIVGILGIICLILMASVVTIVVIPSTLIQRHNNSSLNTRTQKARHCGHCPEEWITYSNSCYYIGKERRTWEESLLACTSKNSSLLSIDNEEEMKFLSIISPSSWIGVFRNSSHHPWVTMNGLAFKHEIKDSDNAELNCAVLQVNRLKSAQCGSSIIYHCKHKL
T1 sequence (P54845 whole entry, change not shown): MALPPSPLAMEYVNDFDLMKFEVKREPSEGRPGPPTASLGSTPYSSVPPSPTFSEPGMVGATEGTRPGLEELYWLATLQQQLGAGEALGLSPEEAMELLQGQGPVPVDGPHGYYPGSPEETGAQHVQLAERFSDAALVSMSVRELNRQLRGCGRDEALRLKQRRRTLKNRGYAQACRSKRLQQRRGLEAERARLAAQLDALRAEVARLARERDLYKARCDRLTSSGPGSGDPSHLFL
T10 sequence (Q96LY2 other isoform, or with tags, fused parts or gaps mutant limits assumed): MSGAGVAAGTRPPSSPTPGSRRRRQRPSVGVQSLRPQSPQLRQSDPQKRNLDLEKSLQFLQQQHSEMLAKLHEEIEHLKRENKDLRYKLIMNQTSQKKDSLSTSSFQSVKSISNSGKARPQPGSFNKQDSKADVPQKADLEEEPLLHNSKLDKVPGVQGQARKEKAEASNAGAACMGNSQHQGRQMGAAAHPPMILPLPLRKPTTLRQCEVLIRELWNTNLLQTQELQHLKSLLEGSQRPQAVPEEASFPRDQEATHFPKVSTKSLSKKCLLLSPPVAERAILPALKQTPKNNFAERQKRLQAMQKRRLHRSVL
T5 sequence (P54652 whole entry): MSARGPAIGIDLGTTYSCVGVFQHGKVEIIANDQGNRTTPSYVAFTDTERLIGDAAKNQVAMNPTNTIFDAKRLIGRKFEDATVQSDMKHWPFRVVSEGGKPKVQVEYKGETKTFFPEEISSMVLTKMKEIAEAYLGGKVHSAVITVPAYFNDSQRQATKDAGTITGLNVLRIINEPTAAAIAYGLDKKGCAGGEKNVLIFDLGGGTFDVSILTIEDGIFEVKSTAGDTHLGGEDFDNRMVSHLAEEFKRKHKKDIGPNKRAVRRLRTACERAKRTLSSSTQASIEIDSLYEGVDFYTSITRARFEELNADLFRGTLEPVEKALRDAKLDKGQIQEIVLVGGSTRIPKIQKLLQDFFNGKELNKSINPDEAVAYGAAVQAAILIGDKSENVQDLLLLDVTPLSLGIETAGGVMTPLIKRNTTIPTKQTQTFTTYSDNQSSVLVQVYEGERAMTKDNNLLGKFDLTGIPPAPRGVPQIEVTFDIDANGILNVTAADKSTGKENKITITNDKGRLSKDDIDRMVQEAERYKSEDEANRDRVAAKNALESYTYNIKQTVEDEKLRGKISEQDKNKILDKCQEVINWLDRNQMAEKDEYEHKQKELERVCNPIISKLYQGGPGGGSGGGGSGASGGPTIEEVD
T12 sequence (P61073 whole entry, change not shown): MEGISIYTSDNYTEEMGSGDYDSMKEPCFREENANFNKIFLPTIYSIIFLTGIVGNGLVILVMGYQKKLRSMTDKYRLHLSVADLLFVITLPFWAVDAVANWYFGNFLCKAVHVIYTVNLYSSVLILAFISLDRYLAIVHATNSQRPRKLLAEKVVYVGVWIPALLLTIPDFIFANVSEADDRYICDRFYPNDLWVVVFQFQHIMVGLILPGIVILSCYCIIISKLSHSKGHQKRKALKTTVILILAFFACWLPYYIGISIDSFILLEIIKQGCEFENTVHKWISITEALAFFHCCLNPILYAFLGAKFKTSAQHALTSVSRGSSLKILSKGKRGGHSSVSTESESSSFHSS
T8 sequence (A0PJZ0 whole entry, the tested form may be a part): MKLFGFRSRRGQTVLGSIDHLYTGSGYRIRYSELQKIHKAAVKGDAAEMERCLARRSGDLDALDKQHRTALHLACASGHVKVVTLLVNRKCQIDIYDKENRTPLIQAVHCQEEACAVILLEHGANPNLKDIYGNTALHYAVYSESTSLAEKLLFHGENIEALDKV

B1: TSAR1001 (antibody, V domains shown)
VH: EVQLVESGGGMVQPGESLRLSCAASGFDFTSYWMAWVRQAPGKGLEWVANMNADGSEKHYVDSVKGRFSISRDNAKKLLFLQMNSLTVDDTGVYYCARDEGRREGAWGQGTQVIVSA
VL: EIVLTQSPATLSFSPGDRATLSCRASQNINRFLAWYQQKPGQTPRLLIYDASTRATGIPARFSGSGSGTDFSLIISSLEPEDFAIYYCQQRNNWPITFGPGTKVDVK
With B1, in assay [1], the binding result is recorded as “binds”.

B2: TBRE1036 (antibody, V domains shown)
VH: QVQLVESGGGVVQPGRSLRLSCAASGFTFSSYAMHWVRQAPGKGLEWVAVISYDGSNKYYADSLKGRFTISRDNSKDTLYLQVNSLRPEDTAVYYCARVNIAAAGTLDYWGQGTLVTVSS
VL: EIVLTQSPGTLSLSPGERATLSCRASQSVSSRYLAWYQQKPGQAPRLLIHGASSRATGIPDRFSGSGSGTDFTLTISRLEPEDFAVYYCQQYGSAWTFGQGTKVEIKR
notes: VH/VL only
Consider B2, for which the binding result in assay [2] is reported as “binds”.

B3: TSAR1005 (antibody, V domains shown)
VH: QVQLVESGGGVVQPGRSLRLSCVASGFTFSNYAMHWVRQAPGKGLEWVAVIWYDGSNEYYRDSVEGRFTISRDSSKNTLYLLVNSLRAEDTAVYYCARGNGPKSGKYSDFDYWGQGTLVTVSS
VL: DVVMTQSPLSLPVTLGQAASISCRSSQSLVYSDGNTYLNWFQQRPGQSPRRLIYKVSNRESGVPDRFSGSGSGTDFTLQISRVEAEDVGIYYCMQGAHWPPITFGQGTRLEIKR
Regarding B3, the binding result in assay [3], in [4] and in [5] was “binds” in each case.

B4: TSTO1001 (antibody, V domains shown)
VH: VVQLLESGGGLVHPGGSLRISCAASEFTFSAYAMTWVRQAPGKGLEWVSAISGSGGRTYYADSLKGRFTISRDNSKHTLYLLMNSLRVEDTAVYYCASRYRSPSGAFDIWGQGTLVTVSS
VL: EIVMTQSPATLSVSQGERATLSCRASQSVGSDLAWYQQKPGQAPRLLIYDASARATDIPARFSGSGSETEFTLTISSLQSEDFAVYYCQHYSDWRALTFGGGTKVEIKR
In the case of B4, the binding result in assay [6] is listed as “binds”.

B5: TPRO1002 (antibody, V domains shown)
VH: EVQLVESGGGVIKPGGSLKLSCEGSGFTLDDYVMHWVRQAPGKGLEWISSISGDGTRTYYADSVKGRFTISRNNGKNSLYLQMDSLRREDTALYYCAKDARLAYYGMDVWGQGTTVTVSS
VL: QSALTQPASVSGSPGQSITISCTGTSSDIGGYDLVSWYQHHPGKAPKLVISEGSKRPSGVSNRFFGSKSGNTASLTISGLQAEDEADYYCCSFTGTSTFVFGTGTKVTVL
As to B5, the binding result in [7], in assay [8] and in assay [9] was “binds” each time.

B6: TSAR1003 (antibody, V domains shown)
VH: QLQLQESGPGLVKPSETLSLTCTVSGVSIGTSSYYWGWIRQPPAKGLEWIGSIYYSGSTYYNPSLKNRVTISVDTSKNHFSLKLSSVTAADTAVYYCARHRTGQYYYNSWGQGTLVTVSS
VL: SSELTQDPAVSVALGQTVRITCQGDSLRTDYATWYQQKPGQAPILVFYGEDNRPSGIPDRFSGSSSGNTASLTITGAQAEDEADYYCNSRDSSGHHWVFGGGTKLTVL
In the case of B6, in assay [10], the binding result is “binds”.

B7: TREC1003 (antibody, V domains shown)
VH: QVQLVQSGSEVKKPGASVRLACKTSGYTFSNYGVSWVRQGPGRGLEWLGWISGYNGRTHSADKFRDRVTLTTDTSTTTVYVDLKNLTSDDTAVYYCARVGTSHWYSDSWGQGTLVTVSS
VL: QSVLTQPPSVSGAPGQRVTISCAGSYSNIGAGYDVHWYRQLPGTAPTLLIYSNNNRPSGVSDRFSGSKSGTSASLAITGLQAEDEADYYCQSFDSSLSRSVFGTGTKVTVL
On to B7, for which the binding result in assay [11] is “binds”.

B8: TSAR1006 (antibody, V domains shown)
VH: QVQLVQSGTEVKKPGASVKVSCKASGYRFTSNGISWVRQAPGQGLQWMGWISTDSGNTNYAQSFQGRVTLTRDTSTNTAYLELRRLRSEDTAVYYCARDKSWYFDYWGQGTLVSVSS
VL: SYELTQPPSVSVSPGQTARITCSGDALPKKYVFWYQQRSGQAPVLVIYEDSKRPSGIPDRFSGSSSGTLATLTISGAQVEDEADYYCYSTDTIGNWVFGGGTRLTVL
With B8, the binding result in [12] and in assay [13] was “binds” throughout.
